Substrate in data set [1]: Cc1cc(=O)oc2cc(NC(=O)[C@@H](N)CC(=O)O)ccc12
Briefly: purified protein. The settings on record: 50 mM Tris-HCl pH 7.5, 37°C.

Substrate in data set [2]: Cc1cc(=O)oc2cc(NC(=O)[C@@H](N)CCC(=O)O)ccc12
Briefly: purified protein. The note with it: 50 mM Tris-HCl pH 7.5, 37°C.

B1: DNPP-1 (Caenorhabditis elegans) (protein)
chain: MAAALKPSAPEIRKAAQEFINYLNKAVTPFHATQEVKDRLLQAGFTELPESGHWDIQPTSKYFVTKNRSAILAFAVGGSYKPGSGFSIVVGHTDSPCLRVKPISHQKSDKFLQVGVSTYGGGIWRTWFDRDLSVAGLVIVKNGEKLQHKLIDVKKPVLFIPNLAIHLETDRTTFKPNTETELRPILETFAAAGINAPQKPESTGFADPRNITNNHHPQFLGLIAKEAGCQPEDIVDLDLYLYDTNKAAIVGMEDEFISGARLDNQVGTYTAISGLLESLTGESFKNDPQIRIAACFDNEEVGSDSAMGASSSFTEFVLRRLSAGGSTTAFEEAIGKSMLISADQAHATHPNYSAKHEENHRPAFHGGVVVKVNVNQRYATTSTTHAALKQVAFEAQVPLQVVVVRNDSPCGSTVGPILATKLGLQTVDVGCPQLAMHSIREFADTSSIYQATTLYSTFYERLSTVLSNMQ
Broadly, the kcat/Km is the second-order rate constant that governs catalysis at low substrate concentration. With B1, in data set [1], the Km is reported as 13.58 10^-3 mM and the catalytic efficiency (kcat/Km) turned out to be 10300 M⁻¹ s⁻¹. Also, in data set [2], the kcat/Km was determined as 15300 M⁻¹ s⁻¹.

(Values after article PMC3623637.)
